The results in this text go back to paper PMC6826779, “Bis-allylic Deuterated DHA Alleviates Oxidative Stress in Retinal Epithelial Cells” (Antioxidants, 2019).

Substrate in series [1]: CCC=CCC=CCC=CCC=CCC=CCC=CCCC(=O)O
Nature of the series: Kinetics parameters of 15s-LOX (UV 270 nm, Michaelis-Menten). The series is classed as biochemical, Glycine max (soybean). Conditions: other: 15s-LOX, substrate 0.02-0.2 mM, borate buffer pH 9, 20 °C. How it is done: (§1) The activity of 15-sLOX was monitored on a Beckman Coulter DU730 Life Sciences UV-visible spectrometer at a wavelength of 270 nm monitoring the conjugated triene structure in the dihydroxylation products. For the measurements a reaction mixture of DHA or deuterated DHA (0.02 mM; 0.04 mM; 0.1 mM and 0.2 mM) was prepared in 750 µL sodium borate buffer (50 mM, pH 9) by ultrasonification for 10 s. The reaction was subsequently initiated by the addition of 10 µL 15-sLOX (4 mg/mL) to make a total volume of 760 µL in a Hellma CEL2056 quartz cuvette with 1 cm path length (20 °C). The initial reaction rates (V(0)), derived from the recorded UV-absorbance using the law of Lambert-Beer (molar extinction coefficient = 40,000), were plotted against the respective DHA concentrations and fitted to Michaelis-Menten kinetics in GraphPad Prism 7.0. All V(0) values were determined in triplicate and the average of three independent experiments was plotted against the substrate concentrations to yield Michaelis-Menten kinetics.

Substrate in series [2]: CC/C=C\C/C=C\C/C=C\C/C=C\C/C=C\C/C=C\CCC(=O)O
Described as above. The series is classed as biochemical, Glycine max (soybean). As to conditions: other: 15s-LOX, substrate 0.02-0.2 mM, borate buffer pH 9, 20 °C. As for the experimental part:
as §1

B1: 15-sLOX (Glycine max) (protein)
chain: MFSAGHKIKGTVVLMPKNELEVNPDGSAVDNLNAFLGRSVSLQLISATKADAHGKGKVGKDTFLEGINTSLPTLGAGESAFNIHFEWDGSMGIPGAFYIKNYMQVEFFLKSLTLEAISNQGTIRFVCNSWVYNTKLYKSVRIFFANHTYVPSETPAPLVSYREEELKSLRGNGTGERKEYDRIYDYDVYNDLGNPDKSEKLARPVLGGSSTFPYPRRGRTGRGPTVTDPNTEKQGEVFYVPRDENLGHLKSKDALEIGTKSLSQIVQPAFESAFDLKSTPIEFHSFQDVHDLYEGGIKLPRDVISTIIPLPVIKELYRTDGQHILKFPQPHVVQVSQSAWMTDEEFAREMIAGVNPCVIRGLEEFPPKSNLDPAIYGDQSSKITADSLDLDGYTMDEALGSRRLFMLDYHDIFMPYVRQINQLNSAKTYATRTILFLREDGTLKPVAIELSLPHSAGDLSAAVSQVVLPAKEGVESTIWLLAKAYVIVNDSCYHQLMSHWLNTHAAMEPFVIATHRHLSVLHPIYKLLTPHYRNNMNINALARQSLINANGIIETTFLPSKYSVEMSSAVYKNWVFTDQALPADLIKRGVAIKDPSTPHGVRLLIEDYPYAADGLEIWAAIKTWVQEYVPLYYARDDDVKNDSELQHWWKEAVEKGHGDLKDKPWWPKLQTLEDLVEVCLIIIWIASALHAAVNFGQYPYGGLIMNRPTASRRLLPEKGTPEYEEMINNHEKAYLRTITSKLPTLISLSVIEILSTHASDEVYLGQRDNPHWTSDSKALQAFQKFGNKLKEIEEKLVRRNNDPSLQGNRLGPVQLPYTLLYPSSEEGLTFRGIPNSISI
With B1, the Km in series [1] turned out to be 57.4 µM; in series [2] (substrate D2-DHA), 36.3 µM; in series [2] (substrate Natural DHA) it was 68 µM.
